Data on 1 molecule can be found in patent US20240279611A1, “EXOSOME PRODUCTION PROMOTING AGENT AND EXOSOME PRODUCTION PROMOTING METHOD” (FULLSTEM CO., LTD., priority 2021, published 2024).

This experiment has as its system adipose-derived mesenchymal stem cells (ADSC). The experiment can be described thus: Amount of exosomes produced from ADSC, measured with Exo Counter (CD81 sandwich immunoassay) after excluding single factors. It is filed as cell-based. The note with it: 48-hour culture in DMEM F12 on nonwoven fabric; one factor excluded from the eight factors of Table 1, compared with all eight added; CD81 on exosome surface detected in culture supernatant; FIG. 1. The method, then: 4×10^4 adipose-derived mesenchymal stem cells (ADSC) were seeded in each well. A nonwoven fabric (3D, BioNOCII, CESCO BIOENGINEERING CO., LTD. in non-adhesive 24 well plate (PrimeSurface (registered trademark) Sumitomo Bakelite Co., Ltd.) was used for cell culture. A basal medium was 1.5 ml of 10% FBS/DMEM F12 (Sigma-Aldrich). The number of days of culture was 6. Starting from Day 2, 1.5 ml of medium was exchanged daily, and the amount of sugar consumed in the used culture medium was measured.
Next, in the cell culture for 48 hours on Day 7 and Day 8, DMEM F12 was used as a medium so as to collect exosomes. In this 48-hour culture, 10% ExoFBS (Funakoshi Co., Ltd.) was added in Test #1. ExoFBS is a product from which bovine-derived exosomes are removed; therefore, influence on an exosome research is reduced.
In Test #3 of the 48-hour culture, only factor A was excluded from the eight factors shown in Table 1, and the other factors were added. In Test #4 of the 48-hour culture, only factor B was excluded from the eight factors shown in Table 1, and the other factors were added. […]
The amount of exosomes produced from ADSC was measured with Exo Counter (Kenwood), using 50 μl each from 1.5 ml of the collected culture supernatant. […] CD81 on the exosome surface was detected to quantify the exosome amount.

B1: SCGF (protein, UniProt Q9Y240 22-323, looked up)
C-type lectin domain family …: ARGAEREWEGGWGGAQEEEREREALMLKHLQEALGLPAGRGDENPAGTVEGKEDWEMEEDQGEEEEEEATPTPSSGPSPSPTPEDIVTYILGRLAGLDAGLHQLHVRLHALDTRVVELTQGLRQLRNAAGDTRDAVQALQEAQGRAEREHGRLEGCLKGLRLGHKCFLLSRDFEAQAAAQARCTARGGSLAQPADRQQMEALTRYLRAALAPYNWPVWLGVHDRRAEGLYLFENGQRVSFFAWHRSPRPELGAQPSASPHPLSPDQPNGGTLENCVAQASDDGSWWDHDCQRRLYYVCEFPF
notes: 29-kDa protein having no N-type sugar chain, belongs to a C-type lectin family
As to B1, the “effect of the factor on the amount of exosomes produced” value is listed as “inhibits the production of exosomes”.
